Data as given in patent publication US20220324970A1 (Janssen / Centocor, published 2022).

Columns and labels:
[1] = target: T1, human pIgR extracellular domain 4-domain 5 (D4-D5) (human, UniProt P01833 350-565); experiment: BLI: IgA binding to immobilized HIS-tagged hD4-D5; sheet says 'IgA binds hD4-D5 weakly'
T1 construct: HIS-tagged construct made in HEK293 cells; also called hpIgR domains 4-5
T1 chain: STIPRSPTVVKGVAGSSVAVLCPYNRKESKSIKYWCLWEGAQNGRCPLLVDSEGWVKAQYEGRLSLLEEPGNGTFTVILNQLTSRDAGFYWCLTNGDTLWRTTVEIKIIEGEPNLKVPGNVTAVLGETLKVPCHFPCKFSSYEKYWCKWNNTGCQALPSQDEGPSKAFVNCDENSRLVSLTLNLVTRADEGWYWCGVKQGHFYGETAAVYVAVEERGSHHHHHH

[2] = target: T1, human pIgR extracellular domain …; experiment: BLI: IgA binding to immobilized HIS-tagged hD4-D5
[3] = target: T2, hpIgR domain-1 with teleost fish CDR1 (hD1 tCDR1) (human, UniProt P01833 19-127, limits assumed); experiment: BLI response heat map (0-1.0 nm), HIS-tagged pIgR construct immobilized
T2 construct: CDR-swapped hpIgR domain-1 mutant, HIS-tagged, made in HEK293 cells; not shown: HIS tag

[4] = target: T3, hpIgR domain-1 with teleost fish CDR2 (hD1 tCDR2) (human, UniProt P01833 19-127, limits assumed); experiment: as above
T3 construct: CDR-swapped hpIgR domain-1 mutant, HIS-tagged, made in HEK293 cells; not shown: HIS tag
T3 chain: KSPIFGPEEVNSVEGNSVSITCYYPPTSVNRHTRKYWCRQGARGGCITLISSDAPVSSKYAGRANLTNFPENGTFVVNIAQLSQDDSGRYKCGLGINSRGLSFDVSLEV

[5] = target: T4, hpIgR_D3; experiment: as above
T4 construct: HIS-tagged construct from HEK293 cells; also called human pIgR extracellular domain 3 (D3); hD3
T4 HIS-tagged domain construct: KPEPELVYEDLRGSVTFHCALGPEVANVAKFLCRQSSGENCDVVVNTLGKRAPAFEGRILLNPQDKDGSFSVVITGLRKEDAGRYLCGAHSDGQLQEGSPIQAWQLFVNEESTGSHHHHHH

[6] = target: T5, human pIgR extracellular domain 5 (D5) (human, UniProt P01833 460-565); experiment: as above
T5 construct: HIS-tagged construct made in HEK293 cells; also called hpIgR domain 5

[7] = target: T6, hpIgR_D2-D3; experiment: as above
T6 construct: HIS-tagged construct from HEK293 cells; also called human pIgR extracellular domain 2-domain 3 (D2-D3); hD2-D3
T6 HIS-tagged domain construct: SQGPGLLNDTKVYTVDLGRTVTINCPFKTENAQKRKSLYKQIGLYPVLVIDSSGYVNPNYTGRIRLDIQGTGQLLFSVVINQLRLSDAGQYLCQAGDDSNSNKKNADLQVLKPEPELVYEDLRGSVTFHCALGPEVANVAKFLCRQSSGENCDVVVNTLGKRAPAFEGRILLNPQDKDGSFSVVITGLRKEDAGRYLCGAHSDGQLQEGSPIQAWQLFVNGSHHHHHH

[8] = target: T7, human pIgR extracellular domain 2 (D2) (human, UniProt P01833 128-242); experiment: as above
T7 construct: HIS-tagged construct made in HEK293 cells; also called hpIgR domain 2

[9] = target: T8, hD3-D4 (human, UniProt P01833); experiment: as above
T8 construct: HIS-tagged two-domain construct; also called human pIgR extracellular domain 3-domain 4 (D3-D4)

[10] = target: T9, human pIgR extracellular domain (ECD) (human, UniProt P01833 19-638); experiment: BLI (Octet RED384), 1:1 fit, 25 C, PBS; column kdis
T9 construct: also called hpIgR ECD

[11] = target: T10, human pIgR, full-length, on cells (human, UniProt P01833 19-764); experiment: flow cytometry on MDCK-hpIgR cells; summary table, repeats Table 1
T10 construct: whole, on cells; Used for the flow cytometry EC50 values (MDCK-hpIgR) and for the transcytosis read-outs; also called hpIgR; cell-surface hpIgR
Procedure: (§1) Flow Cytometry was performed as follows. To test whether VHH-mono-Fc molecules recognize cell-surface hpIgR, Madin-Darby canine kidney (MDCK) cells engineered to express full-length hpIgR were used. Cells were cultured in Dulbecco's modified Eagle's medium containing 10% fetal calf serum at 37° C. with 5% CO₂. Cells were split into equal fractions (≈70,000 cells) and incubated with increasing concentrations of VHH-mono-Fc molecules for 30 min at 4 C. […] Cells were washed twice with cold staining buffer, resuspended in running buffer and analyzed with an iQue Screener (IntelliCyt Corporation). Binding was assessed by RL1 (A647) Geomeans from the live cell population and EC50 was calculated by fitting log VHH concentration versus MFI in Prism (Graphpad).

[12] = target: T9, human pIgR extracellular domain (ECD); experiment: ECL (MSD), anti-VHH detection against anti-Fc detection
Procedure: To check whether VHH recognizes a buried epitope on pIgR, EC₅₀ values were measured for VHH-mono-Fc molecules binding to hpIgR-ECD protein by electrochemiluminescence using two different detection antibodies, an anti-Fc antibody and an anti-VHH antibody. pIgR ECD (10 μg/ml in PBS) was coated on high-bind MSD plates for 2 hours at RT with 1000 rpm, incubated with blocking buffer for 1 hour at RT, incubated with VHH-mono-Fc molecules (increasing concentrations in PBS) for 2 hours at RT with 1000 rpm, washed 3× with PBT, incubated with ruthenylated secondary antibody (2 μg/ml in PBS) for 1 hour at RT with 1000 rpm, washed 3× with PBT and read plates in 40 ul reading buffer using the MSD imager. EC50 was calculated by fitting log VHH concentration versus log ECLU in Prism (Graphpad). The increase in EC₅₀ (>50-fold) due to anti-VHH detection was used as a measure to determine whether VHH recognized buried epitope on pIgR.

[13] = target: T6, hpIgR_D2-D3; experiment: ECL (MSD) heat map, HIS-tagged construct captured via anti-HIS, anti-human-Fc detection
Procedure: (§2) The Electrochemiluminescence assay was performed as follows. A meso-scale discovery (MSD) platform was used for conducting epitope mapping and epitope burial studies. To test the binding of VHH-mono-Fc molecules to purified pIgR protein constructs, Streptavidin MSD plates were coated with a biotinylated anti-HIS antibody (2 μg/ml in PBS) for 1 hour at RT with 1000 rpm, washed 3× with PBT (PBS+0.1% Tween-20), incubated with blocking buffer for 1 hour at RT, incubated with His-tagged pIgR proteins (10 μg/ml in PBS) for 2 hours at RT with 1000 rpm, washed 3× with PBT, incubated with VHH-mono-Fc molecules (100 μg/ml in PBS) for 2 hours at RT with 1000 rpm, washed 3× with PBT, incubated with ruthenylated-anti-human-Fc antibody (2 μg/ml in PBS) for 1 hour at RT with 1000 rpm, washed 3× with PBT and read plates in 40 ul reading buffer using the MSD imager. ECLU values were plotted as a heatmap.

[14] = target: T11, human pIgR extracellular domain 1-domain 2 (D1-D2) (human, UniProt P01833 19-240); experiment: as above
T11 construct: HIS-tagged construct made in HEK293 cells
Procedure: as §2

[15] = target: T10, human pIgR, full-length, on cells; experiment: cell-based or functional assay
[16] = target: T1, human pIgR extracellular domain …; experiment: BLI (Octet RED384), 1:1 fit, 25 C, PBS; antigen printed 'hD4 D5'
Procedure: (§3) Bio-layer Interferometry was performed as follows. […] Data were collected with Octet Data Acquisition version 7.1.0.87 (ForteBio) and analyzed using Octet Data Analysis version 7.1 (ForteBio). To measure binding kinetics between VHH-mono-Fc molecules and HIS-tagged pIgR proteins, VHH-mono-Fc was immobilized on amine-reactive generation-2 (ARG2) biosensors according to manufacturer's instructions and increasing concentrations of pIgR proteins were exposed to sensor-immobilized VHH. In some cases, HIS-tagged pIgR proteins were immobilized on anti-HIS biosensors and exposed to increasing concentrations of VHH-mono-Fc molecules. Association and dissociation rates were measured by the shift in wavelength (nm). […] All reactions were performed at 25° C. in PBS.

[17] = target: T9, human pIgR extracellular domain (ECD); experiment: ECL (MSD), hpIgR-ECD coated, anti-Fc detection
[18] = target: T9, human pIgR extracellular domain (ECD); experiment: BLI; summary table, repeats Table 1
[19] = target: T9, human pIgR extracellular domain (ECD); experiment: ECL (MSD), hpIgR-ECD coated, anti-VHH detection
[20] = target: T4, hpIgR_D3; experiment: ECL (MSD) heat map, HIS-tagged construct captured via anti-HIS, anti-human-Fc detection;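 note: VHH-mono-Fc molecules tested at 100 µg/ml for 2 h on captured His-tagged pIgR constructs (10 µg/ml), read-out as electrochemiluminescence units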
[21] = target: T12, human pIgR extracellular domain 1 (D1) (human, UniProt P01833 19-127); experiment: as above
T12 construct: HIS-tagged construct made in HEK293 cells; also called hpIgR domain-1

[22] = target: T5, human pIgR extracellular domain 5 (D5); experiment: as above
[23] = target: T7, human pIgR extracellular domain 2 (D2); experiment: as above
[24] = target: T10, human pIgR, full-length, on cells; experiment: flow cytometry on MDCK-hpIgR cells; summary table, repeats Table 1; remark: listed apart in the source
Procedure: as §1

[25] = target: T9, human pIgR extracellular domain (ECD); experiment: BLI (Octet RED384), 1:1 fit, 25 C, PBS
[26] = target: T10, human pIgR, full-length, on cells; experiment: flow cytometry on MDCK-hpIgR cells
Procedure: as §1

[27] = target: T9, human pIgR extracellular domain (ECD); experiment: BLI; summary table, repeats Table 1; remark: listed apart in the source
[28] = target: T9, human pIgR extracellular domain (ECD); experiment: BLI (Octet), VHH-mono-Fc and hpIgR ectodomain
[29] = target: T10, human pIgR, full-length, on cells; experiment: cell-based or functional assay; remark: listed apart in the source
[30] = target: T1, human pIgR extracellular domain …; experiment: BLI (Octet RED384), 1:1 fit, 25 C, PBS; column kdis; antigen printed 'hD4 D5'
Procedure: as §3

T10 sequence (P01833 19-764): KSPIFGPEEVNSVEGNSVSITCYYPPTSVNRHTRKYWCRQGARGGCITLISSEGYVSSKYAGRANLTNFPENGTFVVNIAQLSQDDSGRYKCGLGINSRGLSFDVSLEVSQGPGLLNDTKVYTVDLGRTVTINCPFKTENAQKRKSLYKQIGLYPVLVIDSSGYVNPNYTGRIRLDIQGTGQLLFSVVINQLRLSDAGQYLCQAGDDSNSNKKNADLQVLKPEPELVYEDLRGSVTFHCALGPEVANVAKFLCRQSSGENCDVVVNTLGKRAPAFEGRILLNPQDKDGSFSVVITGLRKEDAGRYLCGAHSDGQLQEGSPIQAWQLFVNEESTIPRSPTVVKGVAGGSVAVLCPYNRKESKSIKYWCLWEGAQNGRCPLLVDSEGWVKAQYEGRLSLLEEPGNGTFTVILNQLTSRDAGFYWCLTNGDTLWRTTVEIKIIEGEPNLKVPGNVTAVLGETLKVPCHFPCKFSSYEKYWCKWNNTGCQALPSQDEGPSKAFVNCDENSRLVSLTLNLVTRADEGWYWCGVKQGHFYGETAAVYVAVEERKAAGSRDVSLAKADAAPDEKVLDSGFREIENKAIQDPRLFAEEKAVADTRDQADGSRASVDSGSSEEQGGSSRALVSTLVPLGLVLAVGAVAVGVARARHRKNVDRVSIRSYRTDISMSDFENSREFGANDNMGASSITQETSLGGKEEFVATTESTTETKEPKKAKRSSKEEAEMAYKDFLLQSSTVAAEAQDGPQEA
T9 sequence (P01833 other isoform, or with tags, fused parts or gaps): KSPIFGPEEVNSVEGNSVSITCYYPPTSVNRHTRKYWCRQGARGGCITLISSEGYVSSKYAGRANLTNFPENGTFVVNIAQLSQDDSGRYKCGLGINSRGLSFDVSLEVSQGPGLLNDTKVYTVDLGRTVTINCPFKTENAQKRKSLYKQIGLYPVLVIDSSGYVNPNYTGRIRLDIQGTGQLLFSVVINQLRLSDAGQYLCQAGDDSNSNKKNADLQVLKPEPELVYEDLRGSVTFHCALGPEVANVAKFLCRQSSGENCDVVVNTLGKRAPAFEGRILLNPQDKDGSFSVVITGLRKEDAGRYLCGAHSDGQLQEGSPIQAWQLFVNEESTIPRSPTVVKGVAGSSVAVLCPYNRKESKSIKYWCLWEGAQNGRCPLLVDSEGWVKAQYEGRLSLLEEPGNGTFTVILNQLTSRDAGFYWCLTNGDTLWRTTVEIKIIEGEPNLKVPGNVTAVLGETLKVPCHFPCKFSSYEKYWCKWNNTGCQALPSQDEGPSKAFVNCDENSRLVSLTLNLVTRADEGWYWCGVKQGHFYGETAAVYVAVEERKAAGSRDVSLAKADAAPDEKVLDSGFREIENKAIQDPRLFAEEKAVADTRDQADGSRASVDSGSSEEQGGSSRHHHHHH
T8 sequence (P01833 240-459 limits assumed): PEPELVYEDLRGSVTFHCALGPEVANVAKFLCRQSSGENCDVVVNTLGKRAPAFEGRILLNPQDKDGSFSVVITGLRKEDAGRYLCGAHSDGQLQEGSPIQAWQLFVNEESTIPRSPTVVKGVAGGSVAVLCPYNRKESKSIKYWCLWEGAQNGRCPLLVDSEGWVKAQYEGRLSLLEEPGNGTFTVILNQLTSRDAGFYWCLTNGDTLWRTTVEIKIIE
T11 sequence (P01833 other isoform, or with tags, fused parts or gaps limits assumed): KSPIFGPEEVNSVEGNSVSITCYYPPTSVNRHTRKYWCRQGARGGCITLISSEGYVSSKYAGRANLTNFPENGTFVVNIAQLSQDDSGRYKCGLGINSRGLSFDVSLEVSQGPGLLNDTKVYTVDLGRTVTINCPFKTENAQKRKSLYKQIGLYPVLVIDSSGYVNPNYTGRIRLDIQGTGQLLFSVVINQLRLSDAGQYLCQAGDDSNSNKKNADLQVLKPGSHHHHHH
T12 sequence (P01833 other isoform, or with tags, fused parts or gaps limits assumed): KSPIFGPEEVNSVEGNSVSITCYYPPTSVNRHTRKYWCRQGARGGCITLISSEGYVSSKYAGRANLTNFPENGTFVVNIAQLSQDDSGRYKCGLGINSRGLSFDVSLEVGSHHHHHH

B1: recombinant dimeric IgA2 construct (antibody)
heavy: QVQLVQSGAEVKKPGSSVKVSCKSSGGTSNNYAISWVRQAPGQGLDWMGGISPIFGSTAYAQKFQGRVTISADIFSNTAYMELNSLTSEDTAVYFCARHGNYYYYSGMDVWGQGTTVTVSSASPTSPKVFPLSLDSTPQDGNVVVACLVQGFFPQEPLSVTWSESGQNVTARNFPPSQDASGDLYTTSSQLTLPATQCPDGKSVTCHVKHYTNPSQDVTVPCPVPPPPPCCHPRLSLHRPALEDLLLGSEANLTCTLTGLRDASGATFTWTPSSGKSAVQGPPERDLCGCYSVSSVLPGCAQPWNHGETFTCTAAHPELKTPLTANITKSGNTFRPEVHLLPPPSEELALNELVTLTCLARGFSPKDVLVRWLQGSQELPREKYLTWASRQEPSQGTTTFAVTSILRVAAEDWKKGDTFSCMVGHEALPLAFTQKTIDRLAGKPTHVNVSVVMAEVDGTCY
light: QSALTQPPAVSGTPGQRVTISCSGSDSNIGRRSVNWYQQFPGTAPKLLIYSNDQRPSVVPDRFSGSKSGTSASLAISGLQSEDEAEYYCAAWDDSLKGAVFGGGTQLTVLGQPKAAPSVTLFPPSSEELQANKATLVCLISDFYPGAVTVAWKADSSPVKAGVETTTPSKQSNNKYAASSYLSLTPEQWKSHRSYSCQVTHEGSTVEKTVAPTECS
chain: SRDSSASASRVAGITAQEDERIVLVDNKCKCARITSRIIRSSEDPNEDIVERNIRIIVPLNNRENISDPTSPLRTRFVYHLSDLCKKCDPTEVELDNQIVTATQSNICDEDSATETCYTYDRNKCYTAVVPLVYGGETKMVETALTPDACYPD
notes: No sentence says outright that they are the dIgA2 of the assays; also called dIgA2; dIgA
[1]
  Kd: 1000 nM
[2]
  koff: 0.0801 s⁻¹
  kon: 78400 M⁻¹ s⁻¹
[3]
  binding result: no binding
[4]
  binding result: no binding
[5]
  binding result: no binding
[6]
  binding result: no binding
[7]
  binding result: no binding
[8]
  binding result: no binding
[9]
  binding result: no binding

B2: VHH5-linker-mono-Fc protein (Fc fusion)
chain: QVQLVESGGGLVQAGGSLRLSCAASGRTFSSYAMGWFRQAPGKEREFVAAITWNGGTTYYADSVKGRFTISRDNAKNTVYLQMNSLKPEDTAVYYCAADPFNQGYWGQGTQVTVSSEPKTPKPQPQPQLQPQPNPTTESKSPKSPAPELLGGPSVFLFPPKPKDTLMISRTPEVTCVVVDVSHEDPEVKFNWYVDGVEVHNAKTKPREEQYNSTYRVVSVLTVLHQDWLNGKEYKCKVSNKALPAPIEKTISKAKGQPREPQVYTKPPSREEMTKNQVSLSCLVKGFYPSDIAVEWESNGQPENNYKTTVPVLDSDGSFRLASYLTVDKSRWQQGNVFSCSVMHEALHNHYTQKSLSLSPGK
notes: made in CHO cells; also called VHH5-mono-Fc; hpIgR_175
[10]
  koff: 0.00145 s⁻¹
[11]
  EC50: 4.3 nM
[12]
  Fold change in EC50: 592 fold
[13]
  binding result: no binding (tested: 100 ug/ml (single concentration))
[14]
  binding result: no binding (tested: 100 ug/ml (single concentration))
[15]
  Transcytosis (Fold Incr.): 6.9 fold
[16]
  Kd: 11.6 nM
  kon: 111000 M⁻¹ s⁻¹
[17]
  EC50: 0.3 nM
[18]
  Kd: 11 nM
[19]
  EC50: 178 nM
[20]
  binding result: no binding (tested: 100 ug/ml (single concentration))
[21]
  binding result: no binding (tested: 100 ug/ml (single concentration))
[22]
  binding result: no binding (tested: 100 ug/ml (single concentration))
[23]
  binding result: no binding (tested: 100 ug/ml (single concentration))
[24]
  EC50: 4.3 nM
[25]
  Kd: 10 nM
  kon: 145000 M⁻¹ s⁻¹
[26]
  EC50: 4.3 nM
[27]
  Kd: 11 nM
[28]
  Kd: 11 nM
[29]
  For. Trans. (Fold Incr.): 8.9 fold
  Rev. Trans (Fold Incr.): 2.1 fold
[30]
  koff: 0.00128 s⁻¹
